Data reported in article PMC3172256.

Biological target: CD16.7-PC1-WT (human) (UniProt P08637)
Experiment: co-IP

Row | fold coprecipitation above the background of untransfected cell lysates [fold] | Substance
1 | 2 | Rab8, human, endogenous (from UniProt P61006 1-207) (natural protein)
2 | 1.3 | Rab11, human, endogenous (from UniProt P62491 1-216) (natural protein)
